Assay results published in publication PMC13127578, “Mavacamten inhibits myosin activity by stabilizing the myosin interacting-heads motif and stalling motor force generation” (Science Advances, 2026).

Experiments:
[1] = target: the molecule itself; test: cryo-EM structure; IHM_(mava): 2 μM cHMM with 1 mM ATP, 50 μM mavacamten (5% DMSO), cross-linked with 1 mM BS3, 50 mM KCl, 10 mM Mops pH 7; Lacey continuous carbon grid; ADP.Pi state; 3.7 Å
[2] = target: T1, single-headed human beta-cardiac myosin S1 (cS1), MYH7 residues 1 to 834 fused to GFP and FLAG (human, UniProt P12883 1-834); test: cross-linking; quantitative XL-MS with DSBU (600 μM, 20 min, 25°C) on 4 μM purified cS1 with bound light chains, 10 mM Mops pH 7.3, 50 mM KCl, 1 mM ATP, with 50 μM mavacamten or DMSO; details: both partners purified
T1 construct: beta-cardiac myosin heavy chain (MYH7), human, residues 1 to 834, followed by a short linker, a GFP domain and a FLAG tag; also called cS1gfp

B1: human beta-cardiac heavy meromyosin (β-cHMM) heavy chain, MYH7 residues 1 to 1137 (domain or fragment, UniProt P12883 1-1137, looked up)
chain: MGDSEMAVFGAAAPYLRKSEKERLEAQTRPFDLKKDVFVPDDKQEFVKAKIVSREGGKVTAETEYGKTVTVKEDQVMQQNPPKFDKIEDMAMLTFLHEPAVLYNLKDRYGSWMIYTYSGLFCVTVNPYKWLPVYTPEVVAAYRGKKRSEAPPHIFSISDNAYQYMLTDRENQSILITGESGAGKTVNTKRVIQYFAVIAAIGDRSKKDQSPGKGTLEDQIIQANPALEAFGNAKTVRNDNSSRFGKFIRIHFGATGKLASADIETYLLEKSRVIFQLKAERDYHIFYQILSNKKPELLDMLLITNNPYDYAFISQGETTVASIDDAEELMATDNAFDVLGFTSEEKNSMYKLTGAIMHFGNMKFKLKQREEQAEPDGTEEADKSAYLMGLNSADLLKGLCHPRVKVGNEYVTKGQNVQQVIYATGALAKAVYERMFNWMVTRINATLETKQPRQYFIGVLDIAGFEIFDFNSFEQLCINFTNEKLQQFFNHHMFVLEQEEYKKEGIEWTFIDFGMDLQACIDLIEKPMGIMSILEEECMFPKATDMTFKAKLFDNHLGKSANFQKPRNIKGKPEAHFSLIHYAGIVDYNIIGWLQKNKDPLNETVVGLYQKSSLKLLSTLFANYAGADAPIEKGKGKAKKGSSFQTVSALHRENLNKLMTNLRSTHPHFVRCIIPNETKSPGVMDNPLVMHQLRCNGVLEGIRICRKGFPNRILYGDFRQRYRILNPAAIPEGQFIDSRKGAEKLLSSLDIDHNQYKFGHTKVFFKAGLLGLLEEMRDERLSRIITRIQAQSRGVLARMEYKKLLERRDSLLVIQWNIRAFMGVKNWPWMKLYFKIKPLLKSAEREKEMASMKEEFTRLKEALEKSEARRKELEEKMVSLLQEKNDLQLQVQAEQDNLADAEERCDQLIKNKIQLEAKVKEMNERLEDEEEMNAELTAKKRKLEDECSELKRDIDDLELTLAKVEKEKHATENKVKNLTEEMAGLDEIIAKLTKEKKALQEAHQQALDDLQAEEDKVNTLTKAKVKLEQQVDDLEGSLEQEKKVRMDLERAKRKLEGDLKLTQESIMDLENDKQQLDERLKKKDFELNALNARIEDEQALGSQLQKKLKELQARIEELEEELEAERTARAKVEKLRS
notes: FLAG tag at 1138 to 1146; Two heavy chains form the two-headed cHMM; in the sample each carries a mouse ELC and RLC; For cryo-EM and negative stain the sample was cross-linked with BS3 in the presence of ATP; also called βCM; beta-cardiac myosin
B1: binds [1].

B2: human MYL3 (vLC1), ventricular essential light chain (natural protein)
chain: not shown
notes: myosin essential light chain MYL3 (vLC1), human; also called ELC
B2: binds [2].

B3: human MYL2 (vLC2), ventricular regulatory light chain (natural protein, UniProt P10916 1-166, looked up)
chain: MAPKKAKKRAGGANSNVFSMFEQTQIQEFKEAFTIMDQNRDGFIDKNDLRDTFAALGRVNVKNEEIDEMIKEAPGPINFTVFLTMFGEKLKGADPEETILNAFKVFDPEGKGVLKADYVREMLTTQAERFSKEEVDQMFAAFPPDVTGNLDYKNLVHIITHGEEKD
notes: myosin regulatory light chain MYL2 (vLC2), human; also called RLC
B3: binds [2].
